Measured values as given in patent US9283300B2, “Use of midkine protein and the protein-containing medical device” (GENERAL REGENERATIVES, LTD, priority 2009, dated 2016).

System: partial-thickness injury of rabbit knee cartilage
Assay: Partial-thickness cartilage defect of adult rabbit knee joint, intra-articular rhMK
Format: in vivo, New Zealand white rabbits
Details: adult rabbit knee cartilage partial-thickness injury model, 4 and 9 weeks after surgery, versus saline side
Protocol: Method. 9˜10-month-old male New Zealand white rabbits (3.0˜3.5 kg weight) were anesthetized with 3% pentobarbital sodium (30 mg/kg) by ear vein injection. After anesthesia, the skin was prepared on both sides of the knees. With conventional surgical sterilization and under sterile conditions, the inner side of the knees was cut to expose the femoral condyle surface. A hand-drill was used to make a partial-thickness cartilage injury of 3 mm in diameter on the femoral condyle surface. The partial-thickness injury was created by the criterion of no bleeding in the injured cartilage hole. The wound was sutured with 4-0 lines. 400,000 units penicillin was injected every day for one week to prevent the wound site infection. 24 h after the surgery, normal saline or rhMK was injected into the knee-articular cavity. Partial-thickness cartilage damages were created on both rabbit knees. One knee received 0.5 ml saline as control side, while 0.5 ml rhMK was given into the other knees as treatment side. The injections were given three times a week, for 2 weeks totally. The rabbits were kept in cage and allowed freedom of movement without the knee fixed. 4 and 9 weeks after the surgery, rabbits were sacrificed. The knee-joint cartilage tissues were removed for routine biopsy, H&E, and toluidine blue staining, and their histological changes were analyzed under microscope.

B1: rhMK: recombinant human midkine mature protein (SEQ ID NO.1) expressed in E. coli and purified by ion-exchange chromatography (protein, listed as Homo sapiens)
chain: MKKKDKVKKGGPGSECAEWAWGPCTPSSKDCGVGFREGTCGAQTQRIRCRVPCNWKKEFGADCKYKFENWGACDGGTGTKVRQGTLKKARYNAQCQETIRVTKPCTPKTKAKAKAKKGKGKD
repair of injured cartilage (histology): repairs the injured cartilage with regenerated cartilage tissues
